Assay results reported in PMC10907699, “The IRE1β-mediated unfolded protein response is repressed by the chaperone AGR2 in mucin producing cells” (The EMBO Journal, 2023).

B1: mouse AGR2 (21-175), wild-type [mouse] / MBP-hIRE1b_LD_(35-428)-AviTag-His7 [modified: biotin on the AviTag (endogenous biotinylation of a fraction of the protein in E. coli); biotin on the AviTag (endogenous biotinylation of a fraction of … (parent complex)
chain 1: KDTTVKSGAKKDPKDSRPKLPQTLSRGWGDQLIWTQTYEEALYRSKTSNRPLMVIHHLDECPHSQALKKVFAEHKEIQKLAEQFVLLNLVYETTDKHLSPDGQYVPRIVFVDPSLTVRADITGRYSNRLYAYEPSDTALLYDNMKKALKLLKTEL
chain 2: LRPENLLLVSTLDGSLHALSKQTGDLKWTLRDDPVIEGPMYVTEMAFLSDPADGSLYILGTQKQQGLMKLPFTIPELVHASPCRSSDGVFYTGRKQDAWFVVDPESGETQMTLTTEGPSTPRLYIGRTQYTVTMHDPRAPALRWNTTYRRYSAPPMDGSPGKYMSHLASCGMGLLLTVDPGSGTVLWTQDLGVPVMGVYTWHQDGLRQLPHLTLARDTLHFLALRWGHIRLPASGPRDTATLFSTLDTQLLMTLYVGKDETGFYVSKALVHTGVALVPRGLTLAPADGPTTDEVTLQVSGEREGSPSTAVRYPSGSVALPSQWLLIGHHELPPVLHTTMLRVHPTLGSGTAETRPPENTQAPAFFLELLSLSREKLWDSELHPEEKTPDSYLGL

Variants of: B1
Assay: BLI; HK buffer supplemented with 0.05% Triton X-100 and 1 mM TCEP; 30 °C; IRE1β LD probe immobilised on streptavidin biosensors; parent: 19 nM

First: chain 1 KDTTVKSGAKKDPKDSRPKLPQTLSRGWGDQLIWTQTYEEALYRSKTSNRPLMVIHHLDESPHSQALKKVFAEHKEIQKLAEQFVLLNLVYETTDKHLSPDGQYVPRIVFVDPSLTVRADITGRYSNRLYAYEPSDTALLYDNMKKALKLLKTEL [chain 1 C61S]
Second: chain 1 KDTTVKSGAKKDPKDSRPKLPQTLSRGWGDQLIWTQTYEEALYRSKTSNRPLMVIHHLDEEPHSQALKKVFAEHKEIQKLAEQFVLLNLVYETTDKHLSPDGQYVPRIVFVDPSLTVRADITGRYSNRLYAYEPSDTALLYDNMKKALKLLKTEL [chain 1 C61E]
The screen value of the first is 1.6-fold higher: 124 µM for the first, 78.5 µM for the second.

Variants of: B1
Assay: BLI; 90 µM AGR2 variant (highest concentration point); HK buffer supplemented with 0.05% Triton X-100 and 1 mM TCEP; 30 °C; parent: 0.6; read off a plot

Going from chain 1 KDTTVKSGAKKDPKDSRPKLPQTLSRGWGDQLIWTQTYEEALYRSKTSNRPLMVIHHLDESPHSQALKKVFAEHKEIQKLAEQFVLLNLVYETTDKHLSPDGQYVPRIVFVDPSLTVRADITGRYSNRLYAYEPSDTALLYDNMKKALKLLKTEL [chain 1 C61S] to chain 1 KDTTVKSGAKKDPKDSRPKLPQTLSRGWGDQLIWTQTYEEALYRSKTSNRPLMVIHHLDEEPHSQALKKVFAEHKEIQKLAEQFVLLNLVYETTDKHLSPDGQYVPRIVFVDPSLTVRADITGRYSNRLYAYEPSDTALLYDNMKKALKLLKTEL [chain 1 C61E], the response falls from roughly 0.3 nm to roughly 0.23 nm.
